Laboratory results reported in patent publication US20130315928A1 (published 2013).
Positions count from the first letter of the chain named.

What was measured:
[1] = biological target: T1, equine choriogonadotropin (eCG) or PMSG (equine, UniProt P01220 25-120; P08751 21-169); test: ELISA on commercial eCG, antibody at 1 µg/ml
T1 construct: They are written as one protein; also called commercial eCG (Synchro Part, CEVA); purified eCG (6000 IU/mg)
Experimental: (§1) After washing five times, a secondary antibody (peroxidase-coupled mouse anti-IgM, Jackson Laboratories) was incubated for 1 h at 37° C. (100 μl/well). After washing five times, the peroxidase is developed with TMB (100 μl/well), for 30 min at room temperature and then stopped with 1M H₂SO₄ (50 μl/well).
(§2) In the same way, the antibodies were evaluated on the commercial eCG (Synchro Part, CEVA, Libourne, France) used in treatments for induction of ovulation in sheep and goats. An isotypic control (IgM directed against another type of antigen very remote from the gonadotropic hormones). Each antibody was incubated at a concentration of 10 μg/ml and 1 μg/ml.

[2] = biological target: T2, ovine follicle-stimulating hormone (ovine, UniProt P01218 25-120; P01227 20-129); test: cell-based or functional assay
[3] = biological target: T3, ovine luteinizing hormone (ovine, UniProt P01218 25-120; P01231 21-141); test: cell-based or functional assay
[4] = biological target: porcine luteinizing hormone (porcine, UniProt P01219 25-120; P01232 21-141); test: ELISA, hormone adsorbed at 2 µg/ml, anti-IgM peroxidase; relative to oLH
Experimental: as §1

[5] = biological target: T4, human chorionic gonadotropin (human, UniProt P01215 25-116; P0DN86 21-165); test: as above
T4 construct: Alpha/beta heterodimer; also called hCG
Experimental: as §1

[6] = biological target: bovine luteinizing hormone (bovine, UniProt P01217 25-120; P04651 21-141); test: as above
Experimental: as §1

[7] = biological target: T1, equine choriogonadotropin (eCG) or PMSG; test: ELISA on commercial eCG, antibody at 10 µg/ml
Experimental: as §1, §2

[8] = biological target: T5, human follicle-stimulating hormone (human, UniProt P01215 25-116; P01225 19-129); test: ELISA, hormone adsorbed at 2 µg/ml, anti-IgM peroxidase; relative to oFSH
T5 construct: Alpha/beta heterodimer; also called hFSH; human FSH
Experimental: as §1

[9] = biological target: bovine follicle-stimulating hormone (bovine, UniProt P01217 25-120; P04837 21-129); test: as above
Experimental: as §1

[10] = biological target: porcine follicle-stimulating hormone (porcine, UniProt P01219 25-120; P01228 21-129); test: as above
Experimental: as §1

[11] = biological target: T3, ovine luteinizing hormone; test: ELISA, hormone adsorbed at 2 µg/ml, MAb at 0.1-1-10 µg/ml, anti-IgM peroxidase; oLH is the 100% reference
[12] = biological target: T1, equine choriogonadotropin (eCG) or PMSG; test: ELISA on adsorbed commercial eCG
Experimental: as §1, §2

[13] = biological target: T2, ovine follicle-stimulating hormone; test: ELISA, hormone adsorbed at 2 µg/ml, MAb at 0.1-1-10 µg/ml, anti-IgM peroxidase; oFSH is the 100% reference
[14] = biological target: T1, equine choriogonadotropin (eCG) or PMSG; test: ELISA on purified eCG (6000 IU/mg)

T5 sequence (P01215 25-116, chain 1 of 2): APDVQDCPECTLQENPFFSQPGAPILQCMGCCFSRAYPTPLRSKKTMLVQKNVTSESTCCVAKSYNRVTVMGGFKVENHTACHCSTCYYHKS
T5 sequence (P01225 19-129, chain 2 of 2): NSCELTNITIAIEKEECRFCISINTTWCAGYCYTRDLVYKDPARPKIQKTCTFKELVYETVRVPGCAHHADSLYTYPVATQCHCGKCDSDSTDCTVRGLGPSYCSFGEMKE
T4 sequence (P01215 25-116, chain 1 of 2, other chains not shown): as the sequence (P01215 25-116, chain 1 of 2) above
T1 sequence (P01220 25-120 limits assumed, chain 1 of 2): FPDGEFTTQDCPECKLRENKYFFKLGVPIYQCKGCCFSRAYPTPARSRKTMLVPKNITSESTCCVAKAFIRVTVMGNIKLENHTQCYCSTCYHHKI
T1 sequence (P08751 21-169 limits assumed, chain 2 of 2): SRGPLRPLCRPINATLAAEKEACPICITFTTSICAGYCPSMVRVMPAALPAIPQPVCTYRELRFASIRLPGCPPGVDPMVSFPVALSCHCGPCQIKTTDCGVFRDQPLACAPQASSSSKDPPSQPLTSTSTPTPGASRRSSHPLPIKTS

B1: monoclonal antibody 9A4 A7 D3 (hybridoma CNCM I-4333) (antibody, V domains shown)
VH: EVQLQESGAELVRPGTSVKISCKASGYTFTNYWLGWVKQRPGHGLEWIGDIYPGGGYTNYNEKFKGKATLTADTSSSTAYMQLSSLTSEDSAVYFCARTPLYGSSYGGFAYWGQGTLVTVSA
VL: KTQTTSSLSASLGDRVTISCSASQGISNYLNWYQQKPDGTVKLLIYYTSSLHSGVPSRFSGSGSGTDYSLTISNLEPEDIATYYCQQYSKLPWTFGGGTKLEIK
notes: Hybridoma antibody raised against ovine LH; The VL as determined begins KTQTTSS; also called MAb D3; IgM D3
OD [1]: 0.102 OD
potentiating effect on cAMP secretion (in vitro bioassay) [2]: 150%
potentiating effect on cAMP secretion (in vitro bioassay) [3]: 150%
percentage of cross reaction (OD hormone tested / OD ovine hormone x 100) [4]: 170%
percentage of cross reaction (OD hormone tested / OD ovine hormone x 100) [5]: 72%
percentage of cross reaction (OD hormone tested / OD ovine hormone x 100) [6]: 121%
OD [7]: 0.091 OD
percentage of cross reaction (OD hormone tested / OD ovine hormone x 100) [8]: 100%
percentage of cross reaction (OD hormone tested / OD ovine hormone x 100) [9]: 460%
percentage of cross reaction (OD hormone tested / OD ovine hormone x 100) [10]: 100%
percentage of cross reaction (OD hormone tested / OD ovine hormone x 100) [11]: 100%
binding result [12]: no binding (tested: 10 µg/ml and 1 µg/ml)
percentage of cross reaction (OD hormone tested / OD ovine hormone x 100) [13]: 100%

B2: monoclonal antibody 9A4 D4 B6 (hybridoma CNCM I-4334) (antibody, V domains shown)
VH: B1 VH with E6Q
VL: DIVMTQATSSLSASLGDRVTISCSASQGISNYLNWYQQKPDGTVKLLIYYTSSLHSGVPSRFSGSGSGTDYSLTISNLEPEDIATYYCQQYSKLPWTFGGGTKLEIK
notes: Hybridoma antibody raised against ovine LH; also called MAb B6; IgM B6
OD [1]: 0.078 OD
potentiating effect on cAMP secretion (in vitro bioassay) [2]: 150%
potentiating effect on cAMP secretion (in vitro bioassay) [3]: 150%
percentage of cross reaction (OD hormone tested / OD ovine hormone x 100) [4]: 168%
percentage of cross reaction (OD hormone tested / OD ovine hormone x 100) [5]: 97%
percentage of cross reaction (OD hormone tested / OD ovine hormone x 100) [6]: 122%
OD [7]: 0.088 OD
percentage of cross reaction (OD hormone tested / OD ovine hormone x 100) [8]: 100%
percentage of cross reaction (OD hormone tested / OD ovine hormone x 100) [9]: 430%
percentage of cross reaction (OD hormone tested / OD ovine hormone x 100) [10]: 137%
percentage of cross reaction (OD hormone tested / OD ovine hormone x 100) [11]: 100%
binding result [12]: no binding (tested: 10 µg/ml and 1 µg/ml)
percentage of cross reaction (OD hormone tested / OD ovine hormone x 100) [13]: 100%

B3: monoclonal antibody 1A6 C4 G11 (hybridoma CNCM I-4332) (antibody, V domains shown)
VH: B1 VH with Q3K, E6Q
VL: B2 VL with V3Q, A7T
notes: Hybridoma antibody raised against ovine LH; also called MAb G11; IgM G11
OD [1]: 0.088 OD
binding result [14]: no binding
percentage of cross reaction (OD hormone tested / OD ovine hormone x 100) [4]: 140%
percentage of cross reaction (OD hormone tested / OD ovine hormone x 100) [5]: 68%
percentage of cross reaction (OD hormone tested / OD ovine hormone x 100) [6]: 100%
OD [7]: 0.09 OD
percentage of cross reaction (OD hormone tested / OD ovine hormone x 100) [8]: 113%
percentage of cross reaction (OD hormone tested / OD ovine hormone x 100) [9]: 380%
percentage of cross reaction (OD hormone tested / OD ovine hormone x 100) [10]: 230%
percentage of cross reaction (OD hormone tested / OD ovine hormone x 100) [11]: 100%
percentage of cross reaction (OD hormone tested / OD ovine hormone x 100) [13]: 100%
